T1: Human recombinant FGF8b (fibroblast growth factor-8b) (human)
T1 chain: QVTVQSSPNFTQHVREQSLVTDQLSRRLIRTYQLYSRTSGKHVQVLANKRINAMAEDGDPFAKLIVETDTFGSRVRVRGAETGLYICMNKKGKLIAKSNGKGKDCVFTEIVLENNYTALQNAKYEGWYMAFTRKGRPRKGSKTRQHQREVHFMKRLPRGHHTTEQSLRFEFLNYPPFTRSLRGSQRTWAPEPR

In this experiment the target is T1, Human recombinant FGF8b (fibroblast …). Nature of the experiment: SPR. Background: In SPR one partner is held on a chip, and binding of the other changes the refractive index at the surface.
In the case of Ac-APCRA-NH2 [Ac-APCRA-NH2, partially scrambled peptide], the Kd (usually a measure of binding affinity in units of concentration) was > 3 mM.
To Ac-ARPCG-NH2 [Ac-ARPCG-NH2] belongs 1.9 mM; to H-ARPCA-NH2 [H-ARPCA-NH2, non-acetylated peptide], 2.9 mM; to Ac-ARPMA-NH2 [Ac-ARPMA-NH2], > 3 mM.
To Ac-ARACA-NH2 [Ac-ARACA-NH2] belongs > 3 mM; to Ac-GRPCG-NH2 [Ac-GRPCG-NH2], > 3 mM.
With Ac-ARGCA-NH2 [Ac-ARGCA-NH2] the figure was > 3 mM.
